For data set [1], the target named is T1, ToxN (ToxNEc) (Escherichia coli strain 680, UniProt PDB:7D8O_1 1-187). Nature of the data set: ITC; one-site fit; ITC: 50 mM KH2PO4 pH 7, 100 mM KCl, 15°C; 2-5 uM RNA in cell, 35-50 uM ToxN in syringe. Conditions: protein: recombinant, tags: N-terminal His6 (pCold II). A general note: Isothermal titration calorimetry measures the heat released or taken up as one component is titrated into another.

Data set [2] has as its target T1, ToxN (ToxNEc). Nature of the data set: ITC; no appreciable heat change; ITC: 50 mM KH2PO4 pH 7, 100 mM KCl, 15°C; 2-5 uM RNA in cell, 35-50 uM ToxN in syringe. Conditions: protein: recombinant; tags: N-terminal His6 (pCold II); pseudoknot.

The Kd is the constant that tells how readily two partners part at equilibrium.

As for GGAGGUGAUUUGCUACCUUUAAGUGCAGCUAGAA (structured_RNA) [Δ5'-ToxI], the Kd in the data set with ToxN (ToxNEc) [1] (pseudoknot with 3' single-stranded overhang) was 47.3 ± 7.4 nM.

Consider GGAUUCAGGUGAUUUGCUACCUUUAAGUGCA (structured_RNA) [Δ3'-ToxI], for which the Kd in the data set with ToxN (ToxNEc) [1] (pseudoknot with 5' single-stranded overhang) is 243 ± 55 nM.

For GGAGGUGAUUUGCUACCUUUAAGUGCA (structured_RNA) [27mer (core pseudoknot)], in the data set with ToxN (ToxNEc) [2], the binding result is on record as “no binding”.

The record behind these values is paper PMC8860590, “Identification, functional characterization, assembly and structure of ToxIN type III toxin–antitoxin complex from E. coli”.
